The record followed here is publication PMC10786891, “Massively parallel profiling of RNA-targeting CRISPR-Cas13d”.

To fix the notation:
T1: EsCas13d, nuclease-dead (Eubacterium siraeum, UniProt B0MS50, R295A;H300A;R849A;H854A)
T1 sequence: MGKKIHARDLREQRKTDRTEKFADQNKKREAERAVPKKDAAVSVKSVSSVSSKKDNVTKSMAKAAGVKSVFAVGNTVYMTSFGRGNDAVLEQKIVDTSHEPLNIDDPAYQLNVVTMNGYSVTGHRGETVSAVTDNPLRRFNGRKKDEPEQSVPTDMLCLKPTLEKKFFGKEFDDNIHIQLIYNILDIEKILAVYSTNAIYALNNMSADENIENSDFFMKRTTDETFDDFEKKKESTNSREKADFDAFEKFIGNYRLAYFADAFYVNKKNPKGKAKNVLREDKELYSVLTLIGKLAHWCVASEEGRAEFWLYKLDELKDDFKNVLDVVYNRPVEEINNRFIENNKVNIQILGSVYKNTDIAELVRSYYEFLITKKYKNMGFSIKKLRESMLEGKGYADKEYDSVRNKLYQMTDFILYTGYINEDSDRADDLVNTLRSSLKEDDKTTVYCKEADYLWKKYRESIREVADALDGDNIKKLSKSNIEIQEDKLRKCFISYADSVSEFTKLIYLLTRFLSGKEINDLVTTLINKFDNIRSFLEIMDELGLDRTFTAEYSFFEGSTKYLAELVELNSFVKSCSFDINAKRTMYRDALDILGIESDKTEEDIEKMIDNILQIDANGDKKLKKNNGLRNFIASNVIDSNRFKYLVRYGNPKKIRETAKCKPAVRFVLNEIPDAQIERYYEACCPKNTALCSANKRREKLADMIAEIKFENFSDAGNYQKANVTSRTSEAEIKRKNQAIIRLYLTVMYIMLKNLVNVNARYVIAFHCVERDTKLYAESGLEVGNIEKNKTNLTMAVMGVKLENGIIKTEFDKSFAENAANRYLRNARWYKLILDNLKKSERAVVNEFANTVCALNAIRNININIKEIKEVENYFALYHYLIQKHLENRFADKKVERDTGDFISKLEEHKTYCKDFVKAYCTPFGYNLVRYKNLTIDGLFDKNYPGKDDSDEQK

B1: target 1 insG 3' of 18,insC 3' of 17 (mixed)
RNA 1: CACCCGUGCAAAAAUGCAGGGGUCUAAAACUGAGCGGAUAACCUCUCUAUGG
RNA 2: GGGAAUGGAUCCACAUCUACGAAUUCGUACCAUAGGCAGAGGUUAUCCGCUCACCGAGAUCGGAAGAGCACACGU
B2: target 1 insG 3' of 22,insC 3' of 8 (mixed)
RNA 1: CACCCGUGCAAAAAUGCAGGGGUCUAAAACUGAGCGGAUAACCUCUCUAUGG
RNA 2: GGGAAUGGAUCCACAUCUACGAAUUCGUACGCAUAGAGAGGUUAUCCCGCUCACCGAGAUCGGAAGAGCACACGU
B3: target 1 insC 3' of 22,insG 3' of 9 (mixed)
RNA 1: CACCCGUGCAAAAAUGCAGGGGUCUAAAACUGAGCGGAUAACCUCUCUAUGG
RNA 2: GGGAAUGGAUCCACAUCUACGAAUUCGUACCCAUAGAGAGGUUAGUCCGCUCACCGAGAUCGGAAGAGCACACGU
B4: target 1 U3G,G17U (mixed)
RNA 1: CACCCGUGCAAAAAUGCAGGGGUCUAAAACUGAGCGGAUAACCUCUCUAUGG
RNA 2: GGGAAUGGAUCCACAUCUACGAAUUCGUACCAUAUAGAGGUUAUCCGCGCACCGAGAUCGGAAGAGCACACGU
B5: target 1 A14G,U19G (mixed)
RNA 1: CACCCGUGCAAAAAUGCAGGGGUCUAAAACUGAGCGGAUAACCUCUCUAUGG
RNA 2: GGGAAUGGAUCCACAUCUACGAAUUCGUACCAGAGAGGGGUUAUCCGCUCACCGAGAUCGGAAGAGCACACGU
B6: target 1 del7,del19 (mixed)
RNA 1: CACCCGUGCAAAAAUGCAGGGGUCUAAAACUGAGCGGAUAACCUCUCUAUGG
RNA 2: GGGAAUGGAUCCACAUCUACGAAUUCGUACCAAGAGAGGUUAUCGCUCACCGAGAUCGGAAGAGCACACGU
B7: target 1 insC 3' of 15,insG 3' of 14 (mixed)
RNA 1: CACCCGUGCAAAAAUGCAGGGGUCUAAAACUGAGCGGAUAACCUCUCUAUGG
RNA 2: GGGAAUGGAUCCACAUCUACGAAUUCGUACCAUAGAGCAGGGUUAUCCGCUCACCGAGAUCGGAAGAGCACACGU
B8: target 1 insA 3' of 15,insA 3' of 11 (mixed)
RNA 1: CACCCGUGCAAAAAUGCAGGGGUCUAAAACUGAGCGGAUAACCUCUCUAUGG
RNA 2: GGGAAUGGAUCCACAUCUACGAAUUCGUACCAUAGAGAAGGUAUAUCCGCUCACCGAGAUCGGAAGAGCACACGU
B9: target 1 del17,del18 (mixed)
RNA 1: CACCCGUGCAAAAAUGCAGGGGUCUAAAACUGAGCGGAUAACCUCUCUAUGG
RNA 2: GGGAAUGGAUCCACAUCUACGAAUUCGUACCAUAGAGGUUAUCCGCUCACCGAGAUCGGAAGAGCACACGU
B10: target 1 U10C,C21U (mixed)
RNA 1: CACCCGUGCAAAAAUGCAGGGGUCUAAAACUGAGCGGAUAACCUCUCUAUGG
RNA 2: GGGAAUGGAUCCACAUCUACGAAUUCGUACUAUAGAGAGGUCAUCCGCUCACCGAGAUCGGAAGAGCACACGU
B11: target 1 insC 3' of 22,insC 3' of 3 (mixed)
RNA 1: CACCCGUGCAAAAAUGCAGGGGUCUAAAACUGAGCGGAUAACCUCUCUAUGG
RNA 2: GGGAAUGGAUCCACAUCUACGAAUUCGUACCCAUAGAGAGGUUAUCCGCUCCACCGAGAUCGGAAGAGCACACGU
B12: target 1 insA 3' of 12,insA 3' of 8 (mixed)
RNA 1: CACCCGUGCAAAAAUGCAGGGGUCUAAAACUGAGCGGAUAACCUCUCUAUGG
RNA 2: GGGAAUGGAUCCACAUCUACGAAUUCGUACCAUAGAGAGGAUUAUACCGCUCACCGAGAUCGGAAGAGCACACGU
B13: target 1 insG 3' of 7,insG 3' of 3 (mixed)
RNA 1: CACCCGUGCAAAAAUGCAGGGGUCUAAAACUGAGCGGAUAACCUCUCUAUGG
RNA 2: GGGAAUGGAUCCACAUCUACGAAUUCGUACCAUAGAGAGGUUAUCGCGCUGCACCGAGAUCGGAAGAGCACACGU
B14: target 1 C6G,C21A (mixed)
RNA 1: CACCCGUGCAAAAAUGCAGGGGUCUAAAACUGAGCGGAUAACCUCUCUAUGG
RNA 2: GGGAAUGGAUCCACAUCUACGAAUUCGUACAAUAGAGAGGUUAUCGGCUCACCGAGAUCGGAAGAGCACACGU
B15: target 1 U3A,C21U (mixed)
RNA 1: CACCCGUGCAAAAAUGCAGGGGUCUAAAACUGAGCGGAUAACCUCUCUAUGG
RNA 2: GGGAAUGGAUCCACAUCUACGAAUUCGUACUAUAGAGAGGUUAUCCGCACACCGAGAUCGGAAGAGCACACGU
B16: target 1 C7G,C22A (mixed)
RNA 1: CACCCGUGCAAAAAUGCAGGGGUCUAAAACUGAGCGGAUAACCUCUCUAUGG
RNA 2: GGGAAUGGAUCCACAUCUACGAAUUCGUAACAUAGAGAGGUUAUGCGCUCACCGAGAUCGGAAGAGCACACGU
B17: target 1 insG 3' of 20,insA 3' of 13 (mixed)
RNA 1: CACCCGUGCAAAAAUGCAGGGGUCUAAAACUGAGCGGAUAACCUCUCUAUGG
RNA 2: GGGAAUGGAUCCACAUCUACGAAUUCGUACCAGUAGAGAGAGUUAUCCGCUCACCGAGAUCGGAAGAGCACACGU
B18: target 1 insU 3' of 22,insA 3' of 11 (mixed)
RNA 1: CACCCGUGCAAAAAUGCAGGGGUCUAAAACUGAGCGGAUAACCUCUCUAUGG
RNA 2: GGGAAUGGAUCCACAUCUACGAAUUCGUACUCAUAGAGAGGUAUAUCCGCUCACCGAGAUCGGAAGAGCACACGU
B19: target 1 insC 3' of 11,insG 3' of 4 (mixed)
RNA 1: CACCCGUGCAAAAAUGCAGGGGUCUAAAACUGAGCGGAUAACCUCUCUAUGG
RNA 2: GGGAAUGGAUCCACAUCUACGAAUUCGUACCAUAGAGAGGUCUAUCCGCGUCACCGAGAUCGGAAGAGCACACGU
B20: target 1 insU 3' of 20,insG 3' of 4 (mixed)
RNA 1: CACCCGUGCAAAAAUGCAGGGGUCUAAAACUGAGCGGAUAACCUCUCUAUGG
RNA 2: GGGAAUGGAUCCACAUCUACGAAUUCGUACCAUUAGAGAGGUUAUCCGCGUCACCGAGAUCGGAAGAGCACACGU
B21: target 1 C6U,A9C (mixed)
RNA 1: CACCCGUGCAAAAAUGCAGGGGUCUAAAACUGAGCGGAUAACCUCUCUAUGG
RNA 2: GGGAAUGGAUCCACAUCUACGAAUUCGUACCAUAGAGAGGUUCUCUGCUCACCGAGAUCGGAAGAGCACACGU
B22: target 1 insU 3' of 18,insC 3' of 12 (mixed)
RNA 1: CACCCGUGCAAAAAUGCAGGGGUCUAAAACUGAGCGGAUAACCUCUCUAUGG
RNA 2: GGGAAUGGAUCCACAUCUACGAAUUCGUACCAUAUGAGAGGCUUAUCCGCUCACCGAGAUCGGAAGAGCACACGU
B23: target 1 U3A,U10C (mixed)
RNA 1: CACCCGUGCAAAAAUGCAGGGGUCUAAAACUGAGCGGAUAACCUCUCUAUGG
RNA 2: GGGAAUGGAUCCACAUCUACGAAUUCGUACCAUAGAGAGGUCAUCCGCACACCGAGAUCGGAAGAGCACACGU
B24: target 1 insC 3' of 19,insC 3' of 8 (mixed)
RNA 1: CACCCGUGCAAAAAUGCAGGGGUCUAAAACUGAGCGGAUAACCUCUCUAUGG
RNA 2: GGGAAUGGAUCCACAUCUACGAAUUCGUACCAUCAGAGAGGUUAUCCCGCUCACCGAGAUCGGAAGAGCACACGU
B25: target 1 insA 3' of 19,insA 3' of 5 (mixed)
RNA 1: CACCCGUGCAAAAAUGCAGGGGUCUAAAACUGAGCGGAUAACCUCUCUAUGG
RNA 2: GGGAAUGGAUCCACAUCUACGAAUUCGUACCAUAAGAGAGGUUAUCCGACUCACCGAGAUCGGAAGAGCACACGU
B26: target 1 G5U,A16U (mixed)
RNA 1: CACCCGUGCAAAAAUGCAGGGGUCUAAAACUGAGCGGAUAACCUCUCUAUGG
RNA 2: GGGAAUGGAUCCACAUCUACGAAUUCGUACCAUAGUGAGGUUAUCCUCUCACCGAGAUCGGAAGAGCACACGU
B27: target 1 insC 3' of 17,insC 3' of 5 (mixed)
RNA 1: CACCCGUGCAAAAAUGCAGGGGUCUAAAACUGAGCGGAUAACCUCUCUAUGG
RNA 2: GGGAAUGGAUCCACAUCUACGAAUUCGUACCAUAGCAGAGGUUAUCCGCCUCACCGAGAUCGGAAGAGCACACGU

The target of the data set is T1, EsCas13d, nuclease-dead. Description: crRNA (strand 1, pre-loaded); Mg2+; 40 mM Tris-HCl pH 7.5, 150 mM NaCl, 6 mM MgCl2, 1 mM DTT, 0.1% Tween-20, 0.2 mg/ml BSA; 25 C; 10 min per concentration, then washed. As to conditions: tags: His6-TwinStrep-SUMO cleaved; N-terminal SNAP kept (SNAP-Surface 488); label: 3' end held by stalled T7 RNA polymerase.
For the molecule B1, binding was put at a Kd of 89 ± 32 nM. On to B2, for which the Kd (as a rule, the concentration at which binding is half-saturated) is around 90 nM. With B3, the Kd was 33 ± 16 nM. In turn, B4 gave a Kd of 20.8 ± 1.6 nM. B5 registered an equilibrium dissociation constant (Kd) of around 80 nM.

B6: the dissociation constant (Kd) was 52 ± 6 nM. In the case of B7, binding was characterised by a dissociation constant (Kd) of 22.7 ± 1.8 nM.

Take B8: the affinity, expressed as Kd, was 14.8 ± 0.8 nM.

The molecule B9 gave a dissociation constant (Kd) of 13.9 ± 1.6 nM. The molecule B10 showed a Kd of 8.5 ± 0.4 nM. As to B11, the dissociation constant (Kd) is 15.6 ± 1.3 nM. As to B12, the dissociation constant Kd stood at 37 ± 3.3 nM. As to B13, the Kd is 5.41 ± 0.21 nM. For the molecule B14, binding was put at a Kd of 24.3 ± 1.5 nM.

B15: the Kd came to 19 ± 6 nM. In turn, B16 showed a Kd of 14.2 ± 0.6 nM.

The molecule B17 had a Kd of 32 ± 8 nM. In turn, B18 registered a dissociation constant (Kd) of 66 ± 15 nM. For the molecule B19, binding was put at a Kd of 22.7 ± 1.2 nM.

B20: binding was put at a Kd of 10.4 ± 0.7 nM. Take B21: the Kd came to 33.1 ± 1.9 nM. With B22 the figure was around 90 nM; with B23, 19.7 ± 2 nM; with B24, 52 ± 5 nM. B25 showed a Kd of 16 ± 1.2 nM. In turn, B26 registered a Kd of 66 ± 10 nM.

As for B27, the dissociation constant (Kd) was determined as 61 ± 6 nM.
